Data published in PMC6085827.

Target: S-tagged long RECK isoform (human) (UniProt O95980)
Assay: co-IP

Sequence of UniProt O95980 (O95980 23-942): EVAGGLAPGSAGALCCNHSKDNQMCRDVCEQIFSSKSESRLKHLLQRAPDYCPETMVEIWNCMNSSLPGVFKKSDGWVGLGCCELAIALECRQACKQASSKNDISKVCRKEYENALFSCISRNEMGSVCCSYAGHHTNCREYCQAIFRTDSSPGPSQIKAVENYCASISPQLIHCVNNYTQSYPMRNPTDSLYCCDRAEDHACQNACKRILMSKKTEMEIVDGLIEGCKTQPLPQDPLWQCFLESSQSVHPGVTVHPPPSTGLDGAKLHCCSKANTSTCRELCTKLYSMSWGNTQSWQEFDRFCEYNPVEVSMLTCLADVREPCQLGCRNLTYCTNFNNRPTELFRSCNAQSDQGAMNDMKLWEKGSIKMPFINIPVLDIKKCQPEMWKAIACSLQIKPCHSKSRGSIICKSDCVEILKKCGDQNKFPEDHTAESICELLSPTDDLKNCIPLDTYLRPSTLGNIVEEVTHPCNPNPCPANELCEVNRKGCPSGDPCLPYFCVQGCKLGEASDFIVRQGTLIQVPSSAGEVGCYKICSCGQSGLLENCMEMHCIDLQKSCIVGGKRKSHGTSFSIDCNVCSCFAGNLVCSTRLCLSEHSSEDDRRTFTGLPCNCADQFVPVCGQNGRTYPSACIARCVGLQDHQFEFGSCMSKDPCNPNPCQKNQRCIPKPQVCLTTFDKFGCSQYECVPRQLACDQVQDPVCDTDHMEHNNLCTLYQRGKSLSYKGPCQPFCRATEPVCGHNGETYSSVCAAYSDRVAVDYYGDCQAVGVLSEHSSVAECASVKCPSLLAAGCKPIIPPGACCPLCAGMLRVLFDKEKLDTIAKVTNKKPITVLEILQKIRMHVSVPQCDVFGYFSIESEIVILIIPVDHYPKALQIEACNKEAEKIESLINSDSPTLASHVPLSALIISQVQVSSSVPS

percent reduction of MMP9 co-immunoprecipitated with long RECK: 88%
Substance: Flag-tagged short RECK isoform (natural protein)
